The text below walks through data of article PMC4638388 (Biochimica et biophysica acta, 2015).

For test [1], the target named is GST-tagged 16 kDa domain of protein 4.1R (human). In words: SPR.
The target of test [2] is T1, GST-tagged α4 repeat region of α-spectrin (human, UniProt P02549 370-475).
T1 sequence (looked up): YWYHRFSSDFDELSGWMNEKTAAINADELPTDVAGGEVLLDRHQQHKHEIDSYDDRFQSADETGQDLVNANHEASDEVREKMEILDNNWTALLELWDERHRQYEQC
The test can be described thus: SPR.

GST-tagged 16 kDa domain of protein 4.1R (human), sequence (P11171 whole entry, the tested form may be a part): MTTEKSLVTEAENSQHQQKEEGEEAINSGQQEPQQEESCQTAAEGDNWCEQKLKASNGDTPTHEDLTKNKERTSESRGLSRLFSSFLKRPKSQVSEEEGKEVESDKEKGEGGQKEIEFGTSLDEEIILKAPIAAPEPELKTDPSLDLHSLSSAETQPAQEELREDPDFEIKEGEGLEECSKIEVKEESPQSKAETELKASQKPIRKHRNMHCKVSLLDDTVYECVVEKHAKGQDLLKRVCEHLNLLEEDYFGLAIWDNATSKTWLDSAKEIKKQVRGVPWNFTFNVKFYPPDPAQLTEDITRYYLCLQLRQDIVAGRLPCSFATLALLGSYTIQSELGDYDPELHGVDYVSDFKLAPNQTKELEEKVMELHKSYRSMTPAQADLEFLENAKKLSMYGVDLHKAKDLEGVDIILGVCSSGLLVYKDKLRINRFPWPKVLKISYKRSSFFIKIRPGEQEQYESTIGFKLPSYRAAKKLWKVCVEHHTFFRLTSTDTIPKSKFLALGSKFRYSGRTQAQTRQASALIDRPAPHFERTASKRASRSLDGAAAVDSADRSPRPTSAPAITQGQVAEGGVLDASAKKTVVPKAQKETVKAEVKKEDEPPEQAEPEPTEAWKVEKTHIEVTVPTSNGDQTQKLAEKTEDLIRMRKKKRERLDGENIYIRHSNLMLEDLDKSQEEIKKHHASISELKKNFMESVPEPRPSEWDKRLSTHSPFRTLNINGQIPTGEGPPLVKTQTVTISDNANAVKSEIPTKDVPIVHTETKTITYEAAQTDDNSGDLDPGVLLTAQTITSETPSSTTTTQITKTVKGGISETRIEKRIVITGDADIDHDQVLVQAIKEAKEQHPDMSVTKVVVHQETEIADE

B1: SBP1-C (analyte of the surface plasmon resonance) (domain or fragment)
chain: GKRKGYYLAKKQKKEQMLEQNPEQNPEQNPEQNAQQNAQQNAQQNAQQNSQQNTQQNTQQNTQQKTQQNPQQNAQKTHNNNPQPNPQQKQLLEKPKDKLL
One may read the Kd as the concentration at which binding is half-saturated. Low values mean higher affinity, high ones lower affinity. The koff is the first-order rate constant of dissociation. A lower koff goes with slow dissociation. Consider B1, for which, in test [1], the Ka worked out at 1.73e+07 M⁻¹, the Kd was 58.5 nM and the koff was 0.000459 s⁻¹. In test [2], the Ka was 5.7e+07 ± 1.28 M⁻¹, binding was put at a Kd of 20.4 nM and the koff stood at 0.00031 ± 0.42 s⁻¹.
